Experimental data published in patent US20050036993A1, “Immune activation by double-stranded polynucleotides” (priority 1998, published 2005).

How the values were obtained:
[1] = system: LMP2, TAP-1, invariant chain (Ii), HLA-DM, B7, CIITA, RFX5, IRF-1, PKR, IFN; assay: Northern analysis of genes responsible for antigen presentation in FRTL-5 cells; format: cell-based, rat
Protocol: In some experiments, cells were treated with 100 U/ml rat KIFN for the last 48 hours of culture.
Transfection—All procedures used 10 cm dishes and transfection with Lipofectamine Plus (GIBCO BRL, Gaithersburg, Md.). […] Transfections with Lipofectamine (GIBCO BRL, Gaithersburg, Md.), with DEAE dextran, or using electroporation, performed as in Example 1, yielded the same results.
Nucleic Acids—The following polynucleotides were used in these experiments, both made by Pharmacia Biotech, Piscataway, N.J.: poly(dI)/poly(dC) and poly(I)/poly(C). The same results were obtained, however, using sonicated salmon sperm DNA (Stratagene, La Jolla, Calif.), bacterial DNA or calf thymus DNA (Sigma, St. Louis, Mo.), and FRTL-5 cell genomic DNA. […] Viral DNA from Human Herpes Simplex virus and viral DNA oligonucleotides from HIV, HTLV-1, Foamy virus, and cytomegalic virus (CMV) as well as the plasmid vectors pcDNA3 and pRc/RSV, used with or without methylation, also duplicated the results with the ds synthetic polynucleotides.
The probe for rat CIITA is a cloned rat Type III CIITA cDNA fragment in pcDNA3 (K. Suzuki et al., manuscript in preparation). EcoRI is used to release a 4098 bp fragment as the probe.

[2] = system: MHC Class I, MHC Class II; assay: Northern analysis of MHC Class I and Class II RNA after infection or transfection of FRTL-5 cells; conditions: 5 Tg nucleic acid transfected (Lipofectamine Plus), HSV-2 infection or KIFN, Northern 48 hours after treatment
[3] = system: NF-PB; assay: Gel shift analysis with NF-PB consensus ODN, nuclear protein of FRTL-5 cells; format: cell-based, rat; conditions: nuclear extracts; dsDNA within 3 hours
Protocol: Nuclear Extracts—A previously employed method to prepare nuclear extracts (S. Ikuyama et al., Mol. Endocrinol. 6:1701-1715 (1992)) was modified to prepare extracts from small numbers of cells. Cells were washed, scraped in 1 ml PBS, pelleted in a microfuge, and resuspended in five volumes of Buffer A (10 mM HEPES-KOH, pH 7.9, 10 mM KCl, 1.5 mM MgCl2, 0.1 mM EDTA) containing 0.3 M sucrose and 2% Tween 40. To release nuclei, they were frozen and thawed once, then repetitively pipetted, 50 to 100 times, using a micropipet with a yellow tip (200 T1 capacity). Samples were overlayed on 1 ml of 1.5 M sucrose in Buffer A and microfuged for 10 min at 4EC. Pelleted nuclei were washed with 1 ml Buffer A, centrifuged for 30 sec, then resuspended in 50 T1 of Buffer B (20 mM HEPES-KOH, pH 7.9, 420 mM NaCl, 1.5 mM MgCl2, 0.2 mM EDTA, 25% glycerol). Samples were placed on ice for 20 min with occasional vortexing and centrifuged for 20 min at 4EC. The supernatant fraction containing nuclear protein was aliquoted and stored at −70 C. […]
Electrophoretic Mobility Shift Analysis (EMSA)—Oligonucleotides were labeled with [K-^32P]ATP using T4 polynucleotide kinase, then purified on 8% native polyacrylamide gels (S. Ikuyama et al., Mol. Endocrinol. 6:1701-1715 (1992); H. Shimura, et al., Mol. Endocrinol. 8:1049-69 (1994)). […] Mixtures were analyzed on 5% native polyacrylamide gels and autoradiographed. […]

[4] = system: FRTL-5 rat thyroid cells; conditions: literature; cited from earlier work
[5] = system: rat 90K tumor-associated immunostimulator; assay: Northern analysis of 90K tumor-associated immunostimulator RNA in FRTL-5 cells; format: cell-based; conditions: 5 Tg nucleic acid or 100 U/ml KIFN, Northern after 48 hours
Text: 12: 19-33 (1998)). Filters were sequentially hybridized with the rat 90K, MHC Class I, MHC Class II, and GAPDH probes. […] The glyceraldehyde phosphate dehydrogenase (GAPDH) probe was cut from a pTRI-GAPDH-Rat template (Ambion, Tex.).

B1: KIFN: K-interferon (gamma interferon, character lost), rat recombinant, 100 U/ml (protein, UniProt P01581 23-156, looked up)
Interferon gamma: QGTLIESLESLKNYFNSSSMDAMEGKSLLLDIWRNWQKDGNTKILESQIISFYLRLFEVLKDNQAISNNISVIESHLITNFFSNSKAKKDAFMSIAKFEVNNPQIQHKAVNELIRVIHQLSPESSLRKRKRSRC
Question: What does the source list for B1?
Answer: expression of genes responsible for antigen presentation ([1]; 5 Tg dsDNA or 100 U/ml KIFN, 3 to 72 hours): induced; induction of CIITA, RFX5 and IRF-1 ([1]; 100 U/ml KIFN): induced; MHC RNA levels / MHC expression (Class I and Class II) [2]: increases Class II more than Class I levels; binding of p50/p65 and p50 homodimer to consensus NF-PB oligonucleotide binding site [3]: significantly lesser level; cell cycle progression [4]: inhibits progression; 90K RNA levels [5]: weaker
